Variants at the floor of the assay were thinned out.
How the values were obtained:
[1] = test system: biotinyl-Trp-oxazolone; experiment: self-aminoacylation, catalytic enhancement (BWO) (fold over background); higher = more active; k-Seq, kA / k0A0; sequences stand for … in GGGAAUGGAUCCACAUCUACGAAUUC…UUCACUGCAGACUUGACGAAGCUG
How it was run: (§1)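 Mutagenized RNA pools with a 21-nt variable region (0.43 μM) were reacted with each biotinyl-aminoacyl-oxazolone at 2–1250 μM for 90 minutes at room temperature, in 50 μL HEPES/NaCl/KCl/MgCl2/CaCl2 buffer containing 5% acetonitrile at pH 6.9–7.0. RNA captured on streptavidin was quantified by triplicate qPCR and by Illumina sequencing. The fraction reacted for each sequence was fit to a pseudo-first-order model with bootstrapping, and catalytic enhancement is the median kA divided by the uncatalyzed rate, taken as the low-activity peak of a bimodal Gaussian fit.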

[2] = test system: biotinyl-Phe-oxazolone; experiment: self-aminoacylation, catalytic enhancement (BFO) (fold over background); higher = more active; k-Seq, kA / k0A0; sequences stand for … in GGGAAUGGAUCCACAUCUACGAAUUC…UUCACUGCAGACUUGACGAAGCUG
How it was run: as §1

[3] = test system: biotinyl-Val-oxazolone; experiment: self-aminoacylation, catalytic enhancement (BVO) (fold over background); higher = more active; k-Seq, kA / k0A0; sequences stand for … in GGGAAUGGAUCCACAUCUACGAAUUC…UUCACUGCAGACUUGACGAAGCUG
How it was run: as §1

[4] = test system: biotinyl-Met-oxazolone; experiment: self-aminoacylation, catalytic enhancement (BMO) (fold over background); higher = more active; k-Seq, kA / k0A0; sequences stand for … in GGGAAUGGAUCCACAUCUACGAAUUC…UUCACUGCAGACUUGACGAAGCUG
How it was run: as §1

[5] = test system: biotinyl-Ile-oxazolone; experiment: self-aminoacylation, catalytic enhancement (BIO) (fold over background); higher = more active; k-Seq, kA / k0A0; sequences stand for … in GGGAAUGGAUCCACAUCUACGAAUUC…UUCACUGCAGACUUGACGAAGCUG
How it was run: as §1

[6] = test system: biotinyl-Leu-oxazolone; experiment: self-aminoacylation, catalytic enhancement (BLO) (fold over background); higher = more active; k-Seq, kA / k0A0; sequences stand for … in GGGAAUGGAUCCACAUCUACGAAUUC…UUCACUGCAGACUUGACGAAGCUG
How it was run: as §1

Sequence | self-aminoacylation [1] | self-aminoacylation [2] | self-aminoacylation [3] | self-aminoacylation [4] | self-aminoacylation [5] | self-aminoacylation [6]
CUACUUGAAACAAUCGGUCUG [Fam1A.1 aminoacylation ribozyme variant] | 0.631 | 0.652 | 0.779 | 0.788 | 0.766 | 0.707
AUUAAUCUGGUCAUCGAGUGA [Fam2.1 aminoacylation ribozyme variant] | 6.95 | 15.6 | 2.88 | 4.7 | 3.24 | 5.01
AACUUUGCUGAUAGUCGCAAG [Fam3.1 aminoacylation ribozyme variant] | 3.67 | 3.74 | 2.24 | 2.81 | 2.81 | 3.01
AUUACCCUGCUCGUCGAGUGA [Fam2.1 aminoacylation ribozyme variant] | 0.43 | 0.752 | 0.766 | 0.533 | 0.725 | 0.689
AAGUUUGCUUAUAGUCGCGAG [Fam3.1 aminoacylation ribozyme variant] | 1.53 | 0.935 | 1.03 | 1.07 | 1.01 | 0.821
AAGAUUACUAAUAGUCGCAAG [Fam3.1 aminoacylation ribozyme variant] | 1.92 | 2.29 | 1.41 | 1.77 | 1.6 | 1.44
CUACUUCAUACAGUCGGUCUG [Fam1A.1 aminoacylation ribozyme variant] | 0.282 | 0.496 | 0.67 | 0.52 | 0.574 | 0.556
AGACUUCAAACAAUCGGUCUG [Fam1A.1 aminoacylation ribozyme variant] | 48.1 | 125 | 1.93 | 2.4 | 2.06 | 3.5
AUUACCCUUAUCAUCGAGUGA [Fam2.1 aminoacylation ribozyme variant] | 16.7 | 60.8 | 6.51 | 14.1 | 5.68 | 13.2
CUACUUCAUAGAAUCGGUCUG [Fam1A.1 aminoacylation ribozyme variant] | 0.698 | 0.644 | 0.749 | 0.75 | 0.783 | 0.837
AUUCACCUAGGUCUUCGGGUC [Fam2.2 aminoacylation ribozyme variant] | 1.79 | 3.66 | 1.68 | 1.33 | 1.65 | 2.37
CUACUUCAAUCUAUCGGUCUG [Fam1A.1 aminoacylation ribozyme variant] | 0.936 | 1.28 | 0.907 | 0.902 | 0.888 | 0.836
AGUACCCUGGUCAGCGAGUGA [Fam2.1 aminoacylation ribozyme variant] | 7.2 | 36.4 | 3.45 | 4.42 | 3.51 | 6.63
AUAACCCUGGUCAUCGAGUCA [Fam2.1 aminoacylation ribozyme variant] | 0.624 | 0.721 | 0.806 | 0.958 | 0.774 | 0.781
AUUACACAGGUCAUCGAGUGA [Fam2.1 aminoacylation ribozyme variant] | 5.05 | 8.1 | 2.44 | 3.66 | 2.5 | 3.37
CCACACUUCAAGCAAUCAGUG [Fam1B.1 aminoacylation ribozyme variant] | 2.99 | 6.8 | 2.83 | 3.58 | 3 | 4.36
AGUACGCUGGUCAUCGAGUGA [Fam2.1 aminoacylation ribozyme variant] | 5.19 | 14.4 | 3.21 | 2.82 | 3.17 | 4.19
AUUCACCUAGGUCGUCGAGUG [Fam2.2 aminoacylation ribozyme variant] | 0.529 | 0.746 | 0.878 | 0.743 | 0.661 | 0.851
AUUUACCUAGGUCAUCGUGUG [Fam2.2 aminoacylation ribozyme variant] | 0.691 | 1.75 | 0.953 | 0.995 | 0.874 | 1.18
AUUACCCUGGUCAUAGAGUGG [Fam2.1 aminoacylation ribozyme variant] | 1.18 | 3.37 | 1.43 | 2.18 | 1.37 | 2.31
CCACUCUUCAAGUAAUCGGUC [Fam1B.1 aminoacylation ribozyme variant] | 3.88 | 4.71 | 1.08 | 0.823 | 0.854 | 0.969
AUUCCCCUAGGUCAUCGGGAG [Fam2.2 aminoacylation ribozyme variant] | 8.9 | 19.4 | 6.76 | 8.27 | 6.89 | 9.02
CGACUUCAAACAAUCGGUCUU [Fam1A.1 aminoacylation ribozyme variant] | 12.7 | 18.2 | 1.71 | 1.26 | 1.64 | 1.77
CUACUUCAAACAAUGUGUCUG [Fam1A.1 aminoacylation ribozyme variant] | 0.583 | 0.725 | 0.848 | 0.662 | 0.838 | 0.716
AUUCAUCUAGGUCAUCGGGUA [Fam2.2 aminoacylation ribozyme variant] | 5.53 | 4.63 | 3.46 | 4.18 | 3.09 | 5.18
CUACUUCAGACCAUCGGUCUG [Fam1A.1 aminoacylation ribozyme variant] | 0.856 | 1.06 | 1.07 | 1.25 | 1.1 | 1.14

Sequence | self-aminoacylation [1] | self-aminoacylation [2] | self-aminoacylation [3] | self-aminoacylation [4] | self-aminoacylation [5] | self-aminoacylation [6]
CUACUUCAGACAAUCGGUCUC [Fam1A.1 aminoacylation ribozyme variant] | 0.825 | 1.09 | 0.977 | 0.857 | 0.936 | 0.895
AUUACCCUAGUCAUAGAGUGA [Fam2.1 aminoacylation ribozyme variant] | 9.37 | 32.7 | 3.95 | 7.98 | 4.22 | 7.72
CCAAACUUCAAGCCAUCGGUC [Fam1B.1 aminoacylation ribozyme variant] | 1.01 | 1.07 | 1.18 | 1.28 | 1.15 | 1.03
CCACACUUCUAGCAAUCGGGC [Fam1B.1 aminoacylation ribozyme variant] | 1.7 | 4.87 | 1.64 | 1.08 | 2.09 | 1.21
AAGUUUGCCAAUAGACGCAAG [Fam3.1 aminoacylation ribozyme variant] | 0.482 | 0.674 | 0.664 | 0.625 | 0.591 | 0.562
CUACAUCAAAAAAUCGGUCUG [Fam1A.1 aminoacylation ribozyme variant] | 0.753 | 1.35 | 0.745 | 0.712 | 0.831 | 0.633
CUACUUCAAACAAUCUGGCUG [Fam1A.1 aminoacylation ribozyme variant] | 0.664 | 0.69 | 0.963 | 0.844 | 0.963 | 1.02
AUUCAUCGAGGUCAUCGGGUG [Fam2.2 aminoacylation ribozyme variant] | 10.1 | 83.3 | 6.97 | 12 | 7.05 | 14.9
AUUUCCCUGGACAUCGAGUGA [Fam2.1 aminoacylation ribozyme variant] | 8.11 | 41.7 | 3.54 | 6.51 | 2.83 | 5.46
AUUAACCUAGGUCGUCGGGUG [Fam2.2 aminoacylation ribozyme variant] | 1.42 | 3.08 | 1.42 | 1.7 | 1.38 | 2.01
CCAGAUUUCAAGCAAUCGGUC [Fam1B.1 aminoacylation ribozyme variant] | 2.91 | 3.36 | 1.4 | 1.48 | 1.5 | 1.38
CUUAUUCAAACAAUCGGUCUG [Fam1A.1 aminoacylation ribozyme variant] | 3.34 | 7.03 | 0.688 | 0.713 | 0.702 | 0.679
AUUCACCUAGGUCGUCGCGUG [Fam2.2 aminoacylation ribozyme variant] | 5.27 | 39 | 3.84 | 5.72 | 3.52 | 7.92
AAGUUUCUUAAUAGUCGCAAG [Fam3.1 aminoacylation ribozyme variant] | 1.66 | 3.21 | 1.69 | 1.56 | 1.95 | 1.92
CAACACUUCAAGCAACCGGUC [Fam1B.1 aminoacylation ribozyme variant] | 0.754 | 1.59 | 0.998 | 1.12 | 1 | 1.2
AUUCAUCUAGGUCAUCGGAUG [Fam2.2 aminoacylation ribozyme variant] | 0.846 | 0.576 | 1.04 | 0.879 | 0.962 | 0.802
AAGUUUGAUAAUAGUCGCAAC [Fam3.1 aminoacylation ribozyme variant] | 0.736 | 1.27 | 0.809 | 0.773 | 0.926 | 0.718
AUUCACCUAGGUCAUCGGCUU [Fam2.2 aminoacylation ribozyme variant] | 3.27 | 6.3 | 2.02 | 2.26 | 2.1 | 2.3
UUUCACCGAGGUCAUCGGGUG [Fam2.2 aminoacylation ribozyme variant] | 6.08 | 44.3 | 5.17 | 7.19 | 4.52 | 6.07
AUUGCCCUGGUCAUCGAGUGU [Fam2.1 aminoacylation ribozyme variant] | 65.7 | 448 | 23.4 | 64.6 | 18.4 | 62.2
AAGUUUGCUAAUACUCGCCAG [Fam3.1 aminoacylation ribozyme variant] | 0.773 | 0.993 | 0.836 | 0.629 | 0.916 | 0.655
AUGUUUGCUAAGAGUCGCAAG [Fam3.1 aminoacylation ribozyme variant] | 1.68 | 2.16 | 1.28 | 1.35 | 1.35 | 1.39
CUACGUCGAACAAUCGGUCUG [Fam1A.1 aminoacylation ribozyme variant] | 1.3 | 4.04 | 1.93 | 1.91 | 1.7 | 1.83
AUUACCCUGGCCAUCGAAUGA [Fam2.1 aminoacylation ribozyme variant] | 0.331 | 1.84 | 1.31 | 0.928 | 1 | 1.4
AUUGUCCUGGUCAUCGAGUGA [Fam2.1 aminoacylation ribozyme variant] | 11.3 | 10 | 4.76 | 9.63 | 4.78 | 8.83
